Experimental data from IntAct's records for PubMed 19536138.
Values belong to the substance of their own block, whether it stands above or below them.

How the values were obtained:
clh1_rat Cltc [1] = target: clh1_rat Cltc (UniProt P11442)
clh1_rat Cltc [2] = target: clh1_rat Cltc (UniProt P11442); remark: listed apart in the source
clh1_rat Cltc [3] = target: clh1_rat Cltc (UniProt P11442); remark: listed apart in the source

Sequence of clh1_rat Cltc (P11442 whole entry): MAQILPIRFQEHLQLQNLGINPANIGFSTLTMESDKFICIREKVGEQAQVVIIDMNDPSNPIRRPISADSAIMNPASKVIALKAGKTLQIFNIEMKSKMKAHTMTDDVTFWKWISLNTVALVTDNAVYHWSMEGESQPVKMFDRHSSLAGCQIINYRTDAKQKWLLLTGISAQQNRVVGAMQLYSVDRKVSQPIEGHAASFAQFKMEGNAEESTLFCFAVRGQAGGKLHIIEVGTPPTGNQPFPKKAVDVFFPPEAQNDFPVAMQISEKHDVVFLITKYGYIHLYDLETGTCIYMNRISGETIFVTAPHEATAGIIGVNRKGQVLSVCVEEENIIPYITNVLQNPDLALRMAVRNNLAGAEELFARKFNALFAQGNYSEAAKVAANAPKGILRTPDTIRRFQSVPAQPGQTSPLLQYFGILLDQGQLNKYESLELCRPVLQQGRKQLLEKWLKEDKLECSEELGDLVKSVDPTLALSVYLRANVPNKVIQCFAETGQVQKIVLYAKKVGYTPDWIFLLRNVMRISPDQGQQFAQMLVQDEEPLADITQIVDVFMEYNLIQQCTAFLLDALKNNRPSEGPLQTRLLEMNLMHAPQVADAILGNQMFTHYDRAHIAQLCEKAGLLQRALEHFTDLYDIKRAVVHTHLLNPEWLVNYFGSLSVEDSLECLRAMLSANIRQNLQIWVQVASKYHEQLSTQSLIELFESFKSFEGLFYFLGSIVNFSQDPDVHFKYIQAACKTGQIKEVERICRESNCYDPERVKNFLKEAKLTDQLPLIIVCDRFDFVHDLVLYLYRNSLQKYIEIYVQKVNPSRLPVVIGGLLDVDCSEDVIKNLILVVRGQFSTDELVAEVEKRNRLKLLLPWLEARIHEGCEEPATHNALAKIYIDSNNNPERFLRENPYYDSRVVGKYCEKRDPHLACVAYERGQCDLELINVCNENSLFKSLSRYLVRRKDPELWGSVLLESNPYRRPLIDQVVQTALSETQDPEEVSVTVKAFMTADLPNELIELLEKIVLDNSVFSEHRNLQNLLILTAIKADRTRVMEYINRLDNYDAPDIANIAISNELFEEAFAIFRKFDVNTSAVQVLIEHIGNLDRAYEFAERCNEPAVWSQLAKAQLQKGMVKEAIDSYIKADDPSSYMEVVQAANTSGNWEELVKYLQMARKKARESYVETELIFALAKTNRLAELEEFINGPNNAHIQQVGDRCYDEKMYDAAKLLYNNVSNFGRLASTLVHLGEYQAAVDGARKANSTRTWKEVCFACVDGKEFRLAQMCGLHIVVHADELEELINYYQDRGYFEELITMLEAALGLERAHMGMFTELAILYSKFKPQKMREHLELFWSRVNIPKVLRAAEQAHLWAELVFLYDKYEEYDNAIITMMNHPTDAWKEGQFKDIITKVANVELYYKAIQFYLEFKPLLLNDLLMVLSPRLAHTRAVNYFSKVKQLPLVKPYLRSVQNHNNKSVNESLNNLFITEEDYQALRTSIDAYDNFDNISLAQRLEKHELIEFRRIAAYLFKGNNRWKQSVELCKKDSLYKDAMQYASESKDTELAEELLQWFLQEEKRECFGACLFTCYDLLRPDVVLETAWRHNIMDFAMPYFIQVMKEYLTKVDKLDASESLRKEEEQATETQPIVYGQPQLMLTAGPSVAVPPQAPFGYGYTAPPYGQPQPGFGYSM
Sequence of Inositol polyphosphate 5-phosphatase OCRL (Homo sapiens), Q01968 I74Q (Q01968 whole entry I74Q): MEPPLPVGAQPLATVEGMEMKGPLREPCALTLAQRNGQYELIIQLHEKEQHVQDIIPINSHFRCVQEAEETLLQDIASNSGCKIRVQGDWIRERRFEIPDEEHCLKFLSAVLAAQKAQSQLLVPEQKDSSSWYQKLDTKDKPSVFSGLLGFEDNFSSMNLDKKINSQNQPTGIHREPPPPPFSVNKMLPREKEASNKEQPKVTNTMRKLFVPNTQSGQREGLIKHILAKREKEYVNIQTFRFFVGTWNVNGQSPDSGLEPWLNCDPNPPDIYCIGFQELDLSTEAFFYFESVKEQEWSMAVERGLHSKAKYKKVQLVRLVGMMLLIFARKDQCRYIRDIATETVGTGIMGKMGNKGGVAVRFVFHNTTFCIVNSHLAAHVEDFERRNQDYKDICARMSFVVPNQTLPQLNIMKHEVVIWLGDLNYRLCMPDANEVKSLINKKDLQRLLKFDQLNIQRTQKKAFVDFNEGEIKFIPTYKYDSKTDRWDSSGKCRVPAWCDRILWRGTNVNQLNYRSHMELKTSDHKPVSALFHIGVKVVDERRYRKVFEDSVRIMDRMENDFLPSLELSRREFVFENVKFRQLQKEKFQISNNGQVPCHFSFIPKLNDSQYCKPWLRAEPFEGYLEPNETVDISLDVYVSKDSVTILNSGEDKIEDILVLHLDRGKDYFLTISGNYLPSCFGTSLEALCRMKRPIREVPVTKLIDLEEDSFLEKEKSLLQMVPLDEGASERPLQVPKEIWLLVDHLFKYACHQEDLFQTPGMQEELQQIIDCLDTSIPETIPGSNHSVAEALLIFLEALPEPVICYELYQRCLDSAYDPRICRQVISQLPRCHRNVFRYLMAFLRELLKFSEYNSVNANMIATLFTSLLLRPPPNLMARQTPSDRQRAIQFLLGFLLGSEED
Sequence of Inositol polyphosphate 5-phosphatase OCRL (Homo sapiens), Q01968 I76Q (Q01968 whole entry I76Q): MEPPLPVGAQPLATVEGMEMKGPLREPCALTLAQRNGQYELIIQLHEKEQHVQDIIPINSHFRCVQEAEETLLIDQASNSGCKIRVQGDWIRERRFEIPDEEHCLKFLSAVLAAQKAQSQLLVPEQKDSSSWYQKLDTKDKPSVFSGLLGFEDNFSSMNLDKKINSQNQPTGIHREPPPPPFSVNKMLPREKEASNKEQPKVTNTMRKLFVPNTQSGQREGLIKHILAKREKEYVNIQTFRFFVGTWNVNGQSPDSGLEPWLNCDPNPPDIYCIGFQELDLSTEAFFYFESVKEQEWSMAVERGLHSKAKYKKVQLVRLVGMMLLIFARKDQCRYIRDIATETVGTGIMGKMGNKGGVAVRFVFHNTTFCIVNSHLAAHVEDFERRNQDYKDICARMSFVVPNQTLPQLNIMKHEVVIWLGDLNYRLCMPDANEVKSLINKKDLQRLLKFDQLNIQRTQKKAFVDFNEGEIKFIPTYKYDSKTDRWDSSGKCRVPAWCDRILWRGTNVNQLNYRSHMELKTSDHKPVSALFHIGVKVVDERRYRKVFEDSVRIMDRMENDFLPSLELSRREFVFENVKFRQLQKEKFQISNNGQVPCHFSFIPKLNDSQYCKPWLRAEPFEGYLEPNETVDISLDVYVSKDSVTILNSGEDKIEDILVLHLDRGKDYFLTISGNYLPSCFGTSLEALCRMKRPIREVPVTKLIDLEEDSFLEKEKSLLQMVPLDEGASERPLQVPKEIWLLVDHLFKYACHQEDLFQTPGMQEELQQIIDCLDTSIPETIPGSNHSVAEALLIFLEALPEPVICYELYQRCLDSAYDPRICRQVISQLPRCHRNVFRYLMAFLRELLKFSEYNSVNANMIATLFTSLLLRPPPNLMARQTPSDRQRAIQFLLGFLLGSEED
Sequence of Inositol polyphosphate 5-phosphatase OCRL (Homo sapiens), Q01968 L73S (Q01968 whole entry L73S): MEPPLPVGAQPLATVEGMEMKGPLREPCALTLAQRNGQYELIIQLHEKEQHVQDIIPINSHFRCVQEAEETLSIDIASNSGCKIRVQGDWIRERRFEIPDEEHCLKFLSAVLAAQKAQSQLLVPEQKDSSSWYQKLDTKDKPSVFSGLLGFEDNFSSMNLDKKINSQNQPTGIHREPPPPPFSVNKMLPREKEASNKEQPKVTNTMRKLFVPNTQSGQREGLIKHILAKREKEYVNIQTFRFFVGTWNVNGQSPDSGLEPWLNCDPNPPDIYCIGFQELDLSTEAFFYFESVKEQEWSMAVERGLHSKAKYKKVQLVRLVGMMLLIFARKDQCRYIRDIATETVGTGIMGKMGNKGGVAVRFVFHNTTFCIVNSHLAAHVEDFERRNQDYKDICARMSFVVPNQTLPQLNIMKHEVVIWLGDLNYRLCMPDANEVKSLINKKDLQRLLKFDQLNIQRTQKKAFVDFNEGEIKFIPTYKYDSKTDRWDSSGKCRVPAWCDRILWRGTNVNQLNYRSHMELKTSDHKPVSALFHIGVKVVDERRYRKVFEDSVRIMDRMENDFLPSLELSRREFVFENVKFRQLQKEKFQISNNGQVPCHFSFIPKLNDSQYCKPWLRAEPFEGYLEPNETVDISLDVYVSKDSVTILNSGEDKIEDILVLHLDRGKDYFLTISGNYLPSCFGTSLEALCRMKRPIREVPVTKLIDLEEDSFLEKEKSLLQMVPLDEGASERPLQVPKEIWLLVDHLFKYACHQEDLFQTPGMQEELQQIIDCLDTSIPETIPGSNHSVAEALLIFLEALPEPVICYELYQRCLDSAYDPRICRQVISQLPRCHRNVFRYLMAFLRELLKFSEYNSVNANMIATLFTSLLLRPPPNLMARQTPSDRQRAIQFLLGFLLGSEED

effect of a mutation on the interaction (clh1_rat Cltc [1]): disrupting interaction
Substance: Inositol polyphosphate 5-phosphatase OCRL (Homo sapiens), Q01968 I74Q

effect of a mutation on the interaction (clh1_rat Cltc [2]): disrupting interaction
Substance: Inositol polyphosphate 5-phosphatase OCRL (Homo sapiens), Q01968 L73S

effect of a mutation on the interaction (clh1_rat Cltc [3]): disrupting interaction
Substance: Inositol polyphosphate 5-phosphatase OCRL (Homo sapiens), Q01968 I76Q
